Article PMC3699631, “Posttranslational Modifications of the Histone 3 Tail and Their Impact on the Activity of Histone Lysine Demethylases In Vitro” (PLoS ONE, 2013)

Assays:
PHF8 = PHF8 with PHD domain; ref [5]; cited from earlier work
Excerpt: The enzyme kinetics of FL-KDM4A and ...

human cc-KDM4A = target: T1, human cc-KDM4A (Homo sapiens, UniProt O75164); assay: FDH-assay enzyme kinetics of H3 peptide demethylation, truncated KDM4A; type: biochemical; conditions: for K m / k cat / k cat /K m / demethylation / catalytic activity (in words): FDH-assay; for K m: 50 mM HEPES (pH 7.5), 50 mM NaCl, 50 µM FeSO4, 500 µM α-KG, 500 µM ascorbate, 2 mM NAD, substrate 10–1000 µM, NADH fluorescence 15–30 minutes; for K m / k cat / k cat /K m: triplicate; for k cat / k cat /K m: pH 7.5; for k cat: NADH fluorescence; for k cat /K m: SD by propagation of errors, unit: min^−1 * µM^−1 * 10^3; for demethylation / catalytic activity (in words): compared to H3(1–24)K9me3 where a change is stated
T1 construct: Truncated constructs of KDM4A and KDM4C containing only the catalytic cores (cc-KDM4A/cc-KDM4C); made in house
T1 sequence (O75164 1-350 limits assumed): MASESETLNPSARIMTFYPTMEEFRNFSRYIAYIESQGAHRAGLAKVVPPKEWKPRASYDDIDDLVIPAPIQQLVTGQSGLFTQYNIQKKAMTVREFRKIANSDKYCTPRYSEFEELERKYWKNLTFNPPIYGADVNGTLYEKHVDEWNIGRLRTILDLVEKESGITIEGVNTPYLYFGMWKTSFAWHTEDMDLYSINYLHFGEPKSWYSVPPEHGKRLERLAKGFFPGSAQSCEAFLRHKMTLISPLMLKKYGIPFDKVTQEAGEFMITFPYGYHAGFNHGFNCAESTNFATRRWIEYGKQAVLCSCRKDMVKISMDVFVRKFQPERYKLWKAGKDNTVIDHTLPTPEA
Description: (§1) The enzyme kinetics were measured using a Formaldehyde DeHydrogenase Assay (FDH-Assay) and the demethylation of substrates was confirmed when possible by MALDI-TOF-MS, see File S1 for details. The test solution contained 50 mM HEPES (pH 7.5), 50 mM NaCl, 50 µM FeSO4, 500 µM α-KG, 500 µM ascorbate, 2 mM NAD, approximately 0.05 unit of FDH and e.g. 4.88 µM KDM4C (enzyme concentration varied between batches). The reference solution was comprised of the same except substrate. The assay was initiated by adding various concentrations of H3 peptide substrates e.g. H3(1–24)K9me3 (10–1000 µM) and the increase in NADH fluorescence was measured over 15–30 minutes in 30 second intervals. Data analysis and kinetic values were obtained using programs Excel and GraphPad Prism® 5.0. For details, see File S1.
(§2) The standard deviations for k cat/K m were calculated using the statistic law of propagation of errors. Standard errors for Michaelis-Menten Kinetics were automatically given in GraphPad Prism®, with a 95% confidence interval. All enzyme kinetic curves were done in triplicate unless otherwise stated.
(§3) Test for activity of enzyme using the fluorescence FDH assay, determination of Vmax and Km of enzymes with substrate, expression and purification of cc-KDM4A and cc-KDM4C software and parameters for the FDH coupled assay, see Lohse et al.^21
as §2, with “kcat/ Km” for “k cat/K m”, “95 %” for “95%”

human cc-KDM4C = target: T2, human cc-KDM4C (Homo sapiens, UniProt Q9H3R0); assay: FDH-assay enzyme kinetics of H3 peptide demethylation, truncated KDM4C; type: biochemical; conditions: for K m / demethylation / catalytic activity (in words) / k cat / k cat /K m: FDH-assay; for K m: 50 mM HEPES (pH 7.5), 50 mM NaCl, 50 µM FeSO4, 500 µM α-KG, 500 µM ascorbate, 2 mM NAD, substrate 10–1000 µM, e.g. 4.88 µM KDM4C, NADH fluorescence 15–30 minutes; for K m / k cat: triplicate; for demethylation / catalytic activity (in words): compared to H3(1–24)K9me3 where a change is stated; for k cat: pH 7.5, NADH fluorescence; for k cat /K m: pH 7.5, triplicate, SD by propagation of errors, unit: (min^−1 * µM^−1) * 10^3; for fold decrease in catalytic activity (k cat/K m): compared to H3(1–24)K9me3
T2 construct: Truncated constructs of KDM4A and KDM4C containing only the catalytic cores (cc-KDM4A/cc-KDM4C); made in house
T2 sequence (Q9H3R0 1-349 limits assumed): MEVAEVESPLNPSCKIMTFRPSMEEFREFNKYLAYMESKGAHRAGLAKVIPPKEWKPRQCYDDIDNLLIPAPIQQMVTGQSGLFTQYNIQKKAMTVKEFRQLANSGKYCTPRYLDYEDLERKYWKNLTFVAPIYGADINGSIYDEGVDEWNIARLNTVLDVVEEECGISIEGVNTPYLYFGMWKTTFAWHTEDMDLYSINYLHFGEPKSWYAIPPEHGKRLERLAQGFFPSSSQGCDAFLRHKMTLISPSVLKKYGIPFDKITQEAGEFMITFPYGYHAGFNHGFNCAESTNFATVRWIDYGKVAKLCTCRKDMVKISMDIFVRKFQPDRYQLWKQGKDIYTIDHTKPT
Description: as §1, §2, §3
as §2, with “kcat/ Km” for “k cat/K m”, “95 %” for “95%”

| fold difference in catalytic activity between cc-KDM4A and cc-KDM4C (human cc-KDM4A; cc-KDM4A versus cc-KDM4C) [fold] | K m (human cc-KDM4A; cc-KDM4A) | k cat (human cc-KDM4A; cc-KDM4A) | k cat /K m (human cc-KDM4A; cc-KDM4A) | fold increase in k cat/K m (human cc-KDM4A; cc-KDM4A, compared to H3(1–24)K9me3) [fold] | K m (human cc-KDM4C) | demethylation / catalytic activity (in words) (human cc-KDM4C) | k cat (human cc-KDM4C) | k cat /K m (human cc-KDM4C) | fold decrease in catalytic activity (k cat/K m) (human cc-KDM4C) [fold] | Substance | change of K m (PHF8) | change of k cat (PHF8) | demethylation / catalytic activity (in words) (human cc-KDM4A; cc-KDM4A) |
| --- | --- | --- | --- | --- | --- | --- | --- | --- | --- | --- | --- | --- | --- |
|  |  |  |  |  |  |  |  |  |  | H3(1–24)K4me3-K9me2: H3(1–24) substrate with trimethylated K4 and dimethylated K9 | a decrease in K m | an increase in k cat |  |
| 10 | 33±4 | 1.0±0.03 | 30.3±3.8 | 3 | 35.2±20 | a decrease | 0.1±0.01 | 2.8±0.2 | 3 | H3(1–24)K9me3K14(ac): histone peptide containing H3K9me3 in combination with acetylation of K14 |  |  | an increase in the enzymatic catalytic efficiency |
|  | 162±15 | 1.2±0.04 | 7.4±0.7 |  | 207±50 | did not prevent demethylation | 0.38±0.04 | 1.8±0.1 | 5 | H3(1–24)T3(ph)K9me3: phosphorylation of threonine 3 in combination with lysine 9 trimethylation |  |  | did not prevent demethylation |
